Laboratory results: US20120121591A1 (priority 2009, published 2012)
Read-outs that look alike come from different tables or passages of the source. No end group written: not given here.

Tests used:
[1] = system: IFN-g secretion from T cells in human whole blood; assay type: cell-based
human Kv1.1 [2] = molecular target: T1, human Kv1.1 (Homo sapiens, UniProt Q09470); assay type: cell-based; conditions: read-out: Kv1.1 IC50, whole cell patch clamp
[3] = system: IL-2 secretion from T cells in human whole blood; assay type: cell-based
human Kv1.3 [4] = molecular target: T2, human Kv1.3 (Homo sapiens, UniProt P22001); assay type: cell-based; conditions: for IC50: read-out: Kv1.3 IC50, whole cell patch clamp
T2 sequence (P22001 whole entry): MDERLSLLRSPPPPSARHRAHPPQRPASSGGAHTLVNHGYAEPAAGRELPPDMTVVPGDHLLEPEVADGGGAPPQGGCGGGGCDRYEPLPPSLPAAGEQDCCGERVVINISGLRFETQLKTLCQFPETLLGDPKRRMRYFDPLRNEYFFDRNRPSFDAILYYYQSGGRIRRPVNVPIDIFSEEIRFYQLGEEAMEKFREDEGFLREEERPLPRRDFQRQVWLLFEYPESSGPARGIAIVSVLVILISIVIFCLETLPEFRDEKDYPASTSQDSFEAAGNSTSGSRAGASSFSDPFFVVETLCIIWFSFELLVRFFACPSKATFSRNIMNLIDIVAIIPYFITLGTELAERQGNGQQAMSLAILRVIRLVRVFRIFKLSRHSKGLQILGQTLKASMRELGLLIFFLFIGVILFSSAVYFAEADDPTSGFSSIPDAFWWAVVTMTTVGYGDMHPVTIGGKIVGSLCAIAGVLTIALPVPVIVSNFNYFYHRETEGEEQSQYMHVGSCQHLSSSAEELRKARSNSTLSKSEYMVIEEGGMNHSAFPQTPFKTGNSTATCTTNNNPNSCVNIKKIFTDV

hKv1.3 = hKv1.3 (Homo sapiens, UniProt P22001); assay: cell-based; assay type: cell-based
Sequence of hKv1.3 (P22001 whole entry): as above

[5] = assay type: in vivo, rat; conditions: Sprague-Dawley rats
Source text: Single subcutaneous doses were delivered to animals and serum was collected at various time points after injection. Studies in rats, dogs (beagles), and cynomolgus monkeys involved two to three animals per dose group, with blood and serum collection occurring at various time points over the course of the study. Male Sprague-Dawley (SD) rats (about 0.3 kg), male beagles (about 10 kg) and male cynomolgus monkeys (about 4 kg) were used in the studies described herein (n=3 animals per dose group). Approximately 5 male CD-1 mice were used per dose and time point in our mouse pharmacokinetic studies. Serum samples were stored frozen at −80° C., until analysis in an enzyme-linked immunosorbent assay (ELISA).
Single subcutaneous doses were delivered to animals and serum was collected at various time points after injection. Three animals were used per dose group, with blood and serum collection occurring at various time points over the course of the study. Serum samples were stored frozen at −80° C., until analysis in an enzyme-linked immunosorbent assay (ELISA). […] A brief description of these ELISA protocols is provided: […]

[6] = system: human CD34-derived mast cells
[7] = molecular target: NMDA (Cerep target) (human)
[8] = molecular target: Glycine (Strychnine insensitive) (Cerep target) (human)
[9] = molecular target: NMDA (Cerep target) (human); assay: Cerep safety pharmacology binding assay
[10] = molecular target: Glycine (Strychnine insensitive) (Cerep target) (human); assay: Cerep safety pharmacology binding assay
[11] = molecular target: cynomolgus monkey T cell Kv1.3 (cynomolgus monkey); assay: cell-based or functional assay
human Kv1.3 [12] = molecular target: T2, human Kv1.3; assay: cell-based or functional assay
hCav1.2 (ICa) (human) = hCav1.2 (ICa) (human) (UniProt Q13936); assay: cell-based or functional assay
hKv1.7 = hKv1.7 (Homo sapiens, UniProt Q96RP8); assay: cell-based or functional assay
Sequence of hKv1.7 (Q96RP8 whole entry): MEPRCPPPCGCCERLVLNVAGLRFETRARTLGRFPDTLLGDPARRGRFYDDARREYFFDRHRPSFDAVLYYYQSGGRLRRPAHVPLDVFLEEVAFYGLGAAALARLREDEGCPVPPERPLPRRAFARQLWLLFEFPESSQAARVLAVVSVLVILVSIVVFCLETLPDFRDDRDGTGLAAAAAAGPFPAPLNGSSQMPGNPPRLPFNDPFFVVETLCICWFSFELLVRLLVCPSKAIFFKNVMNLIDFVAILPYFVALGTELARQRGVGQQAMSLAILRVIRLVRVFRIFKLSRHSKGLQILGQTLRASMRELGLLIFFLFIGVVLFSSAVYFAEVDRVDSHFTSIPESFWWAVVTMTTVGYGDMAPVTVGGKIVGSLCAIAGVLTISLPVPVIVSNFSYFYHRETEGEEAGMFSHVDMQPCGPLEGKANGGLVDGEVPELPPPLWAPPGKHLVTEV

hKv4.3 (Ito) (human) = hKv4.3 (Ito) (human) (UniProt Q9UK17); assay: cell-based or functional assay
hERG (IKr) (human) = hERG (IKr) (human) (UniProt Q12809); assay: cell-based or functional assay
hNav1.5 (INa) (human) = hNav1.5 (INa) (human) (UniProt Q14524); assay: cell-based or functional assay
hKv1.5 = hKv1.5 (Homo sapiens, UniProt P22460); assay: cell-based or functional assay
Sequence of hKv1.5 (P22460 whole entry): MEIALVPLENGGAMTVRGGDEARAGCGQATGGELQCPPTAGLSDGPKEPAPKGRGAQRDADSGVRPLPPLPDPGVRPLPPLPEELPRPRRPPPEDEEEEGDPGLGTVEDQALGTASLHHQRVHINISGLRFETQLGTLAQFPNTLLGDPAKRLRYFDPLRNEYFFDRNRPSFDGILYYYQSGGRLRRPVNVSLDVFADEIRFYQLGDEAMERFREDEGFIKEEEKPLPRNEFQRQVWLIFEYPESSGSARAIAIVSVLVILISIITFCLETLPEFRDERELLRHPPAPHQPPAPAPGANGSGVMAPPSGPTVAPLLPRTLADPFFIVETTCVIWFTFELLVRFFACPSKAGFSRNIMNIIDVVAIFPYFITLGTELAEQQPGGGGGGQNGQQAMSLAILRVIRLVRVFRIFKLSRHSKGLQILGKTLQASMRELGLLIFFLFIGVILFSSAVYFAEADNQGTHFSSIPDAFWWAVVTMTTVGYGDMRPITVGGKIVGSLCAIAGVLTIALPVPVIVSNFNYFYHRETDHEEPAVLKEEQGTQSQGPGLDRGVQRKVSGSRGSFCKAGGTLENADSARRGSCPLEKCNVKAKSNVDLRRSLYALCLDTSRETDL

hKv1.2 = hKv1.2 (Homo sapiens, UniProt P16389); assay: cell-based or functional assay
Sequence of hKv1.2 (P16389 whole entry): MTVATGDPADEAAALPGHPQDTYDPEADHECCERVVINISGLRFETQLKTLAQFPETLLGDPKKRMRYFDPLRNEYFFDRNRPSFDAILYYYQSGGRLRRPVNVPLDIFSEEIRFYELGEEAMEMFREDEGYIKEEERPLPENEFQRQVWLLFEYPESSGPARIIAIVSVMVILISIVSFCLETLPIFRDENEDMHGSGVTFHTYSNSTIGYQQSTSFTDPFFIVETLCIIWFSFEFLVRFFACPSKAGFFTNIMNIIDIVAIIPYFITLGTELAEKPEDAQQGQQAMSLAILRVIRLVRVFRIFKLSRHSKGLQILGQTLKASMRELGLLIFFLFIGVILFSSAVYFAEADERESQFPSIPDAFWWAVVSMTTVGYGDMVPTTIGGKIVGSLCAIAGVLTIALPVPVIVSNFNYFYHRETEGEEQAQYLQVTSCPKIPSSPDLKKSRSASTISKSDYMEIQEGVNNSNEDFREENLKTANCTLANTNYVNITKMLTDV

hKv1.4 = hKv1.4 (Homo sapiens, UniProt P22459); assay: cell-based or functional assay
Sequence of hKv1.4 (P22459 whole entry): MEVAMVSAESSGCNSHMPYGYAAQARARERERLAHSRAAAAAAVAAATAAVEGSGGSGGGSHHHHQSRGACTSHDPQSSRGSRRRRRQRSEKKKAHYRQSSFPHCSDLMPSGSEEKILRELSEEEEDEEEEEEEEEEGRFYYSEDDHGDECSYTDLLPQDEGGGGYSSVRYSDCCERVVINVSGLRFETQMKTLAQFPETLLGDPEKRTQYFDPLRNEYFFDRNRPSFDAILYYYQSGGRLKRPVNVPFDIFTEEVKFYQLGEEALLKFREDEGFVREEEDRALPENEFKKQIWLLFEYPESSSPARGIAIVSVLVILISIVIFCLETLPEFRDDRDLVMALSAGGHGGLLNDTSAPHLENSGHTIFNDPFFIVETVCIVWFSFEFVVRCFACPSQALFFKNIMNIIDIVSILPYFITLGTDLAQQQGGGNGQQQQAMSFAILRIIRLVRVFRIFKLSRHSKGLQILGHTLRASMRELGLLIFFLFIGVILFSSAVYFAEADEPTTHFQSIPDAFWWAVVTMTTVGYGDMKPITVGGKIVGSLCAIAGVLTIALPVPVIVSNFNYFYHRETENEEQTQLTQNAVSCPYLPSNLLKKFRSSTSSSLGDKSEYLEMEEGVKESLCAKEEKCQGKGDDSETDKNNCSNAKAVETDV

human Kv1.1 [13] = molecular target: T1, human Kv1.1; assay: cell-based or functional assay
hKv1.6 = hKv1.6 (Homo sapiens, UniProt P17658); assay: cell-based or functional assay
BKCa (human) = BKCa (human) (UniProt Q12791); assay: cell-based or functional assay
Sequence of BKCa (human) (Q12791 whole entry): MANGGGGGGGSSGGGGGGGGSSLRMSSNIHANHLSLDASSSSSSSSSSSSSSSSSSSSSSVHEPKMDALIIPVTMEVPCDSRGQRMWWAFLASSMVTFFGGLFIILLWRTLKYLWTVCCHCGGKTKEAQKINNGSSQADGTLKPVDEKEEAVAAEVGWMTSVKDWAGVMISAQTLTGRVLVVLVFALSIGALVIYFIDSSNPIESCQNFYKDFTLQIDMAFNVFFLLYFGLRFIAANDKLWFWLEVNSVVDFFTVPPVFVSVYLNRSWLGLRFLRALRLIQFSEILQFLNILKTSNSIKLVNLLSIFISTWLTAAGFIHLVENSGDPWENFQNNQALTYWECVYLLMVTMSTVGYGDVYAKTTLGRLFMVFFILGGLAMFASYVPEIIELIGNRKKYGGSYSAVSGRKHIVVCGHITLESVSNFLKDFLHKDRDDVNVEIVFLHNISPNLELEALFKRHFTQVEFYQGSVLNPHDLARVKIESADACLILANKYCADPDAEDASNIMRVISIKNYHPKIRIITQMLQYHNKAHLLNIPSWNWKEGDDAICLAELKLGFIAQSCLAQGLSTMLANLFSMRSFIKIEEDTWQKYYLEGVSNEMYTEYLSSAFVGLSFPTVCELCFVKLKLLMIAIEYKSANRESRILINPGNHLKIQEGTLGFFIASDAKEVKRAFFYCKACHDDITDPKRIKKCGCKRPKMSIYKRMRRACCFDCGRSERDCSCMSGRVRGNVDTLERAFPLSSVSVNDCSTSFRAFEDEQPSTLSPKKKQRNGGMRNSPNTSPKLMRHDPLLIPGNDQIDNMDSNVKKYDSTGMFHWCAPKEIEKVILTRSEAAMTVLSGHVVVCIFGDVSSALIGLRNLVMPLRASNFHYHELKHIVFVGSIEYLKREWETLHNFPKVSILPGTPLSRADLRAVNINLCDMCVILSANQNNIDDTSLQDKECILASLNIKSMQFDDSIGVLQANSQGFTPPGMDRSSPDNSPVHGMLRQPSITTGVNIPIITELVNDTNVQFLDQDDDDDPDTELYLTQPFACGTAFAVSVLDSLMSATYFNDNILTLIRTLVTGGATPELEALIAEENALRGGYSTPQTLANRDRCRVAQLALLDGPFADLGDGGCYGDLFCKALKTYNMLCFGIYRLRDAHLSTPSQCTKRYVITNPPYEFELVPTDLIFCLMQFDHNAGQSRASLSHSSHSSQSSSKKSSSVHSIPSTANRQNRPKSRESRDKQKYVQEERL

human Kv1.3 [14] = molecular target: T2, human Kv1.3; assay: cell-based or functional assay; remark: listed apart in the source
human Kv1.1 [15] = molecular target: T1, human Kv1.1; assay: cell-based or functional assay; remark: listed apart in the source
[16] = assay type: in vivo, rat; conditions: male SD rats, single SC dose
Procedure: Hypoactivity and lateral recumbence were also observed at 0.4 mg/kg. […] The severity of swelling was not dose dependent, and all clinical observations noted in all groups that survived to their scheduled euthanasia resolved by approximately 24 hours postdose. […] Other changes noted at lower doses were limited to decreased lymphocytes and triglycerides at 0.4 mg/kg.
All clinical signs were resolved by day 11. […] Hematologic effects in animals given ≧0.5 mg/kg/day were consistent with increased red cell turnover, and correlated with increased spleen weights, and increased splenic hemopoiesis.
Exposures increased with increasing dose up to 2.5 mg/kg, but exposures were similar in rats given 2.5 and 5.0 mg/kg. […] There was a decrease in body weight and body weight gain noted in the 2.5 and 5.0 mg/kg/dose groups. […] Urine chemistry values were increased in a few animals/group at 0.5 or 2.0 mg/kg/day, but these changes were inconsistent among and within animals, and considered unlikely to be related to treatment. There were no test article-related effects on biomarkers of renal injury (beta-2 microglobulin, calbindin, clusterin, cystatin C, glutathione S-transferase alpha, kidney injury molecule-1, neutrophil gelatinase-associated lipocalin, osteopontin, tissue inhibitor of metalloproteinase-1, and vascular endothelial growth factor). […]

T1 sequence (Q09470 whole entry): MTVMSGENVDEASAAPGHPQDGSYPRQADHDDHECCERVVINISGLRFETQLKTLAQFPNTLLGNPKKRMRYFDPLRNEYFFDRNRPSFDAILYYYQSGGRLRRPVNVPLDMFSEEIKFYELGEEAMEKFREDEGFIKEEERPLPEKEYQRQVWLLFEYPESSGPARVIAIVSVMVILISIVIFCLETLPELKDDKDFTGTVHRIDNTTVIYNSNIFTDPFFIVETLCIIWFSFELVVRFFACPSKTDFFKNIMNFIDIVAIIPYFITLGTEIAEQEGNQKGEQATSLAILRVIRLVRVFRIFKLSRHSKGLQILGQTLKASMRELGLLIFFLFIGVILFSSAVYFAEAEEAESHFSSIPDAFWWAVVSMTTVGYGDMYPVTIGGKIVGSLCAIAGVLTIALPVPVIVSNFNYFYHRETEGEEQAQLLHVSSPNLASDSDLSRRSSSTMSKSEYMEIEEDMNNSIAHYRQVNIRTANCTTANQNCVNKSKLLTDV

Molecule “Bivalent Fc-L10-ShK[1-35] homodimer: bivalent IgG1 Fc-L10-ShK[1-35] peptibody, Example 1 of WO2008/088422A2 (GGGGSGGGGSRSCIDTIPKSRCTAFQCKHSMKYRLSFCRKTCGTC; not fully specified (N-terminus); ends and bridges not checked; also: homodimer (bivalent Fc peptibody))” has an IC50 ([1]; read-out: WB (IFNg) IC50) of 0.32 nM, an IC50 (human Kv1.1 [2]) of 0.067 nM and an IC50 ([3]; read-out: WB (IL-2) IC50) of 0.386 nM.

With “20 kDa-PEG-ShK: ShK conjugated with an N-terminal 20 kDa PEG moiety” the IC50 ([1]; read-out: WB (IFNg) IC50) was 0.84 nM, the IC50 ([1]; read-out: WB (IFNg) IC50 (nM, Avg)) was 0.855 nM and the IC50 (human Kv1.3 [4]) was 0.299 nM. It also gave an IC50 ([3]; read-out: WB (IL-2) IC50) of 0.38 nM, an IC50 ([3]; read-out: WB (IL-2) IC50 (nM, Avg)) of 0.387 nM and an IC50 (hKv1.3; read-out: Kv1.3 (IWQ) IC50 (nM, Avg)) of 1.21 nM. For the same molecule, the AUC0-inf ([5]; SC 0.3 mg/kg) was 6,020 ng · hr · mL^−1, the AUC0-t ([5]; SC 0.3 mg/kg) was 6011 ng·h/mL and the Cmax ([5]; SC 0.3 mg/kg) was 165 ng/mL. For the same molecule, the “DNAUC (0-inf)” value ([5]; SC 0.3 mg/kg) was 20065, the MRT ([5]; SC 0.3 mg/kg) was 27 h and the Tmax ([5]; SC 0.3 mg/kg) was 24 h. The AUC0-inf ([5]; SC 2 mg/kg) was 42374 ± 10,237 ng · hr · mL^−1, the AUC0-t ([5]; SC 2 mg/kg) was 42347 ± 10,228 ng · hr · mL^−1 and the Cmax ([5]; SC 2 mg/kg) was 1138 ± 404 ng/mL. The “DNAUC (0-inf)” value ([5]; SC 2 mg/kg) was 21187, the MRT ([5]; SC 2 mg/kg) was 37 ± 3 h and the Tmax ([5]; SC 2 mg/kg) was 24 ± 0 h.

With “MCDP: basic secretagogue, positive control (IKCNCKRHVIKPHICRKICGKN; ends and bridges not checked; cysteine pairing not given here; UniProt P01499 28-49, looked up)” the “Degranulation / histamine release of human CD34-derived mast cells” value [6] was “highly active”.

For “substance P: basic secretagogue, positive control”, the “Degranulation / histamine release of human CD34-derived mast cells” value [6] was “highly active”.

Molecule 20 kDa PEG-[Lys16]ShK (peptide) has a % Inhibition [7] of 71%, a % Inhibition [8] of 101% and an IC50 [9] of 10000 nM. It also gave an IC50 [10] of 1700 nM, a cyno whole blood PD assay, IL-4 response IC50 [11] of 0.17 nM and a cyno whole blood PD assay, IL-17 response IC50 [11] of 0.09 nM. It also gave an IFNγ production in human whole blood IC50 (human Kv1.3 [12]) of 0.24 nM, an IL-2 production in human whole blood IC50 (human Kv1.3 [12]) of 0.109 nM and a Kv1.3 (IWQ) IC50 (human Kv1.3 [12]) of 0.665 nM. The WB (IFNg) IC50 (human Kv1.3 [12]) was 0.215 nM, the WB (IL-2) IC50 (human Kv1.3 [12]) was 0.104 nM and the whole blood IL-2 secretion IC95 (human Kv1.3 [12]) was 1.01 nM. For the same molecule, the Cav1.2 (ICa) IC50 (hCav1.2 (ICa) (human)) was greater than 30000 nM, the Kv1.7 IC50 (hKv1.7) was greater than 10000 nM and the Kv4.3 (Ito) IC50 (hKv4.3 (Ito) (human)) was greater than 30000 nM. The hERG (IKr) IC50 (hERG (IKr) (human)) was greater than 10000 nM, the Nav1.5 (INa) IC50 (hNav1.5 (INa) (human)) was greater than 30000 nM and the Kv1.5 IC50 (hKv1.5) was greater than 30000 nM. The Kv1.2 IC50 (hKv1.2) was 639 nM, the Kv1.4 IC50 (hKv1.4) was greater than 10000 nM and the Kv1.1 (IWQ) IC50 (human Kv1.1 [13]) was 1080 nM. For the same molecule, the Kv1.6 IC50 (hKv1.6) was 466 nM and the BKCa IC50 (BKCa (human)) was greater than 10000 nM.

With “Bivalent Fc-L10-ShK[2-35] homodimer: bivalent IgG1 Fc-L10-ShK[2-35] peptibody, Example 2 of WO2008/088422A2 (Fc-GGGGSGGGGSSCIDTIPKSRCTAFQCKHSMKYRLSFCRKTCGTC; ends and bridges not checked; also: homodimer via IgG1 Fc)” the IC50 ([1]; read-out: WB (IFNg) IC50) was 2.29 nM, the IC50 (human Kv1.1 [2]) was 0.411 nM and the “Kv1.1/Kv1.3 Selectivity Ratio” value (human Kv1.3 [4]) was 3.54. The IC50 (human Kv1.3 [4]) was 0.116 nM, the “Potency Relative to ShK (WB, IL2)” value [3] was 8.73 and the IC50 ([3]; read-out: WB (IL-2) IC50) was 0.585 nM.

20 kDa PEG-ShK (peptide) gave a Kv1.3 IC50 (whole cell patch clamp) (human Kv1.3 [14]) of 0.299 nM, a WB (IFNg) IC50 (human Kv1.3 [14]) of 0.84 nM and a WB (IL-2) IC50 (human Kv1.3 [14]) of 0.38 nM. The Kv1.1 IC50 (whole cell patch clamp) (human Kv1.1 [15]) was 1.63 nM, the Kv1.3 (IWQ) IC50 (human Kv1.3 [12]) was 1.21 nM and the WB (IFNg) IC50 (human Kv1.3 [12]) was 0.855 nM. It also gave a WB (IL-2) IC50 (human Kv1.3 [12]) of 0.387 nM and a Kv1.1 (IWQ) IC50 (human Kv1.1 [13]) of 0.11 nM.

In the case of “PEG-[1-Nal 16]ShK: PEG conjugate of the 1-Nal16 analog of ShK, relatively Kv1.3-inactive (RSCIDTIPKSRCTAFXCKHSMKYRLSFCRKTCGTC; PEG; ShK PEGylated toxin peptide analog; PEGylated; 3-(1-naphthyl)alanine)”, the “Times less activity of the PEG conjugate than of the free peptide (Kv1.3)” value (hKv1.3) is reported as “about 57 times” and the “Molar AUC exposure compared with PEG-[Lys16]ShK and anti-KLH Ab-[Lys16]ShK” value [16] is reported as 6-8 ×.

Work on 30kPEG-[Lys16]ShK (peptide) yielded a Kv1.3 (PX) IC50 (human Kv1.3 [14]) of 1.2 nM, a WB (IFNg) IC50 (human Kv1.3 [14]) of 0.491 nM and a WB (IL-2) IC50 (human Kv1.3 [14]) of 0.282 nM. The Kv1.1 (PX) IC50 (human Kv1.1 [15]) was 1070 nM, the Kv1.3 (IWQ) IC50 (human Kv1.3 [12]) was 0.454 nM and the Kv1.1 (IWQ) IC50 (human Kv1.1 [13]) was 33.3 nM.

B1: Bivalent Fc-L10-ShK[2-35] homodimer (Fc fusion)
chain: GGGGSGGGGSSCIDTIPKSRCTAFQCKHSMKYRLSFCRKTCGTC
modifications: not fully specified (N-terminus); ends and bridges not checked; also: homodimer via Fc
B1 showed a Kv1.3 IC50 (whole cell patch clamp) (human Kv1.3 [14]) of 0.116 nM, a WB (IFNg) IC50 (human Kv1.3 [14]) of 2.29 nM and a WB (IL-2) IC50 (human Kv1.3 [14]) of 0.585 nM. It also gave a Kv1.1 IC50 (whole cell patch clamp) (human Kv1.1 [15]) of 0.411 nM.
